Test results published in patent US20220362303A1.

Target: trypsin (T9253, Merck Life Sciences) (UniProt P00760)
Test: cell-based or functional assay

T9253 sequence (P00760 24-246): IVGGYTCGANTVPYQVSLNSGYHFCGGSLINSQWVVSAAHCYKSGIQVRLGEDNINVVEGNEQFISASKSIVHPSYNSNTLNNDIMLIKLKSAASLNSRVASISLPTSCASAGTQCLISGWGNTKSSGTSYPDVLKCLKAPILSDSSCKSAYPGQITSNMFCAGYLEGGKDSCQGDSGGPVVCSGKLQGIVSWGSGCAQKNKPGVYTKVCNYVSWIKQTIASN

µg trypsin inhibited by 1 mg sample (BAPNA trypsin inhibition assay) (µg trypsin inhibited by 1 mg sample)	µg trypsin inhibited (BAPNA trypsin inhibition assay, casein at 0.1 mg/ml) (µg trypsin inhibited)	Substance
1.43	–	Human EGF (Peprotech, New Jersey, USA) (from UniProt P01133 971-1023) (ligand)
703	–	Ovomucoid (Sigma, USA) (from UniProt P01005 25-210)
3.24	0.34	calcium caseinate (C16)
838	–	soya bean trypsin inhibitor (SBTI, Roche, Calif., USA) (from UniProt P01070 25-205)
